Measured values from publication PMC13438699.

Target: A/Solomon Islands/3/2006 (H1N1) HA (influenza A virus A/Solomon Islands/3/2006 (H1N1))
Test: cryo-EM structure

A/Solomon Islands/3/2006 (H1N1) HA (natural protein)
stoichiometry N: 3
